Data published in patent publication US20160102137A1.

Key:
Assay in all cases: cell-based or functional assay
[1] = biological target: HIV-1 envelope (Env) spike trimer of strain 6535.3 (HIV-1 strain 6535.3)
[2] = biological target: HIV-1 envelope (Env) spike trimer of strain CAP210 (HIV-1 strain CAP210)
[3] = biological target: HIV-1 envelope (Env) spike trimer of strain SC4226618 (HIV-1 strain SC4226618)

Substance: 3BNC60-62 bp-3BNC60 homo-diFab
- neutralization potency (IC50) compared with 3BNC60 IgG against HIV-1 6535.3 [1]: 100 fold

Substance: PG16-60 bp-b12 hetero-diFab (bispecific antibody)
- neutralization potency compared with the mixture of Fabs plus dsDNA or the more potent of the two Fabs alone [2]: 10 fold
- neutralization potency compared with the mixture of Fabs plus dsDNA or the more potent of the two Fabs alone [3]: 10 fold
